# Measured values taken from patent US12320801B2, “Methods to spatially profile protease activity in tissue and sections” (Massachusetts Institute of Technology, priority 2017, dated 2025).
# Like-named read-outs stand apart in the source and are kept apart here. Non-standard residues stand in square brackets, D forms with d. Primed or numbered codes have the meaning given here. No end group written: not given here. *: point of attachment. 5FAM = O=C1OC2(c3ccc(O)cc3Oc3cc(O)ccc32)c2ccc(C(=O)*)cc21; CPQ2 = quencher on the Lys side chain; PEG2′ = polyethylene glycol linker
# Experiments:
# [1] = target: mouse MMP9 (Mus musculus, UniProt P41245); assay: Cleavage of MMP9 substrate by mouse MMP9; format: biochemical
# Description: FIGS. 14A-14B show iRGD ABNz characterization.
# Receptor expression on tumors varies by tumor type and patient. In this example, another ABN was produced using the tumor-penetrating ligand, iRGD (CRGDKGPDC; SEQ ID NO: 2). This peptide engages the same active-internalization pathway as LyP-1, but binds to αvβ3 or αvβ5 integrin heterodimers as its primary receptor, which are ectopically overexpressed in a large subset of cancers (FIG. 12A). The tumor-targeting peptides iRGD and LyP-1 were bound to ABNs and administered to an immunocompetent mouse model of colorectal liver metastasis (CLM), induced via an intrasplenic injection of p32-negative, integrin-positive and NRP-1-positive MC-26 cells (FIG. 12B-12C and FIGS. 13A-13C). MC-26 cells are derived from a mouse colorectal cancer line and secrete MMP9, which can be detected in the tumor nodules as well as in the tumor-adjacent liver, but not in non-tumor-bearing liver lobes (FIG. 12D). The stoichiometries for substrate conjugation on iRGD ABNs were similar to those used on the LyP-1 ABNs (FIG. 14A). […] This was consistent in the model of orthotopic ovarian cancer (FIG. 15D).
# [2] = target: T1, thrombin (Homo sapiens, UniProt P00734); assay: In vitro recombinant protease assay: cleavage of nanoparticle-presented FRET substrate by thrombin; format: biochemical; details: for cleavage velocity (V) by thrombin: 6 μM substrate
# T1 construct: purchased Haematologic Technologies
# Experimental: In some embodiments, surface presentation of peptide substrates allows tuning of specificity between on- and off-target proteolytic cleavage rates of the substrate (e.g., MMP9 substrate). The cleavage kinetics of an MMP9 peptide substrate (PLGVRGK; SEQ ID NO: 15), flanked by a fluorescence resonance energy transfer (FRET) pair, at varying distances from the nanoparticle core (FIG. 3A) were tested. For this substrate, the rate of cleavage by MMP9 increased with increasing presentation distance (tether length) for all the substrate concentrations tested (0.5, 1.0, 2.0, 4.0 and 6.0 μM); as an example, cleavage velocity (V) increased from 0.24 to 0.96 nM s^−1 at 6 μM (FIG. 3B). Unexpectedly, this phenomenon was not generalizable across enzymes. For example, cleavage rates by the serine protease, thrombin, decreased with increasing presentation distance when the same substrate was tested (e.g., V at 6 μM of substrate decreased from 0.29 to 0.01 nM s^−1; FIG. 3C). Nor was it generalizable across substrates. […] The presentation of the MMP9 substrate on the ABNs described in this example exploited the increased on-target and decreased off-target protease cleavage that occurs for long tether lengths.
# Nanoparticles coupled with intramolecularly quenched peptide substrates were reacted with recombinant proteases to identify cleavage velocities. NPs were mixed with 1% (w/v) BSA (Sigma) and incubated with recombinant proteases (MMP-9, Enzo Life Sciences; thrombin, Haematologic Technologies) in a final volume of 50 μl in enzyme-specific buffers (MMP9 buffer: 50 mM Tris, 150 mM NaCl, 5 mM CaCl2), 1 μM ZnCl2, pH 7.5; thrombin: PBS) in a 384-well plate for time-lapse fluorimetry to measure dequenching at 37° C. (SpectroMax Gemini EM microplate reader). Michaelis-Menten constants were determined by assessing initial cleavage velocities at different substrate concentrations (Prism 5.0, GraphPad). The final MMP-9 concentration was 100 nM and the final thrombin concentration was 7 nM.
# [3] = target: T2, MMP9 (Homo sapiens, UniProt P14780); assay: In vitro recombinant protease assay: cleavage of nanoparticle-presented FRET substrate by MMP9; format: biochemical; details: 6 μM substrate
# T2 construct: purchased Enzo Life Sciences
# Experimental: In some embodiments, surface presentation of peptide substrates allows tuning of specificity between on- and off-target proteolytic cleavage rates of the substrate (e.g., MMP9 substrate). The cleavage kinetics of an MMP9 peptide substrate (PLGVRGK; SEQ ID NO: 15), flanked by a fluorescence resonance energy transfer (FRET) pair, at varying distances from the nanoparticle core (FIG. 3A) were tested. For this substrate, the rate of cleavage by MMP9 increased with increasing presentation distance (tether length) for all the substrate concentrations tested (0.5, 1.0, 2.0, 4.0 and 6.0 μM); as an example, cleavage velocity (V) increased from 0.24 to 0.96 nM s^−1 at 6 μM (FIG. 3B). Unexpectedly, this phenomenon was not generalizable across enzymes. For example, cleavage rates by the serine protease, thrombin, decreased with increasing presentation distance when the same substrate was tested (e.g., V at 6 μM of substrate decreased from 0.29 to 0.01 nM s^−1; FIG. 3C). Nor was it generalizable across substrates. […]
# Nanoparticles coupled with intramolecularly quenched peptide substrates were reacted with recombinant proteases to identify cleavage velocities. […] (SpectroMax Gemini EM microplate reader). Michaelis-Menten constants were determined by assessing initial cleavage velocities at different substrate concentrations (Prism 5.0, GraphPad). […]
# [4] = system: matrix-metalloprotease; assay: Cleavage of MMP9 substrate by OVCAR-8 conditioned media with and without MMP inhibitor; format: biochemical, human
# [5] = system: OVCAR-8 tumor nodules; assay: Blood biomarker HE4 ELISA in orthotopic OVCAR-8 ovarian cancer model; format: in vivo, mouse
# Experimental: The ability of ABNs to: (1) detect low-burden ovarian cancer and (2) outperform a clinical blood biomarker were tested. Detection by ABNs was compared to the blood biomarker HE4, as OVCAR-8 cells produce relatively high levels of this protein, on a par with four other human ovarian cancer cell lines (FIGS. 10B-10C). […] This threshold of sensitivity is critical, as clinically approved imaging modalities can typically only resolve individual tumor nodules greater than 5 mm in diameter. Additionally, it has been estimated that to decrease serous ovarian cancer mortality by 50% with an annual screen, a test would have to be sensitive to tumors of <5 mm. […] It was confirmed that the tumor nodule retrieval methodology described in this example accounted for greater than 80% of the tumor burden by measuring luminescence pre- and post-resection (FIGS. 11D-11G). The tumor burden remaining can be attributed to uncollected macroscopic and microscopic lesions.
# To generate an orthotopic model of human ovarian cancer, three- to four-week-old female NCr nude mice were injected intraperitoneally with 2×10^6 OVCAR-8 cells expressing firefly luciferase. Tumor burden was measured via luminescence using an in vivo imaging system (IVIS, PerkinElmer). Each mouse was sacrificed and the tumors were retrieved from all organs in the peritoneal space. Tumors were collected on a glass slide and scanned on a LI-COR Odyssey with 169 μm resolution. Widths and lengths were measured with ImageJ and tumor volume was calculated as described above for subcutaneous tumors. The reported tumor volumes for each group are the average of ten mice. Before tumor induction, urine measurements were performed by injecting mice with 0.5 μM LyP1 ABNs. Approximately 200 μl of blood was collected and spiked with EDTA to a final concentration of 5 mM, and the blood cells were pelleted. Plasma was stored at −20° C. prior to HE4 quantification. HE4 levels were measured using the HE4 quantikine ELISA kit.
# T2 sequence (P14780 94-707): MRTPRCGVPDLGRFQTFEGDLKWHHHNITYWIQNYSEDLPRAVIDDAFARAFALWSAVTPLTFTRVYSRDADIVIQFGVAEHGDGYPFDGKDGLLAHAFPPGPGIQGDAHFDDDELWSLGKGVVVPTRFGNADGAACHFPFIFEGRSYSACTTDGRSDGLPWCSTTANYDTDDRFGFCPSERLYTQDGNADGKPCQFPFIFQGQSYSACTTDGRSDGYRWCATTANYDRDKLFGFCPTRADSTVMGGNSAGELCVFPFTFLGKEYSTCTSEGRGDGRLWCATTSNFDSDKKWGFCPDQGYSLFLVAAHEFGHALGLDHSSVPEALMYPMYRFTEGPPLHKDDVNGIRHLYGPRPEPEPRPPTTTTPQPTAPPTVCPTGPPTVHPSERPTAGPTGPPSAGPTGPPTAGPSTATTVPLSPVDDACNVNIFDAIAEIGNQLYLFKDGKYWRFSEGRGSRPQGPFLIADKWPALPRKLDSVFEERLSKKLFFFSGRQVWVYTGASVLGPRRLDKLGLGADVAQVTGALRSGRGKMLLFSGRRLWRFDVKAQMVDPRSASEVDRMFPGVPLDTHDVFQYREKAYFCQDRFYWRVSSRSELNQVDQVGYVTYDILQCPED
# Sequence of mouse MMP9 (P41245 108-730): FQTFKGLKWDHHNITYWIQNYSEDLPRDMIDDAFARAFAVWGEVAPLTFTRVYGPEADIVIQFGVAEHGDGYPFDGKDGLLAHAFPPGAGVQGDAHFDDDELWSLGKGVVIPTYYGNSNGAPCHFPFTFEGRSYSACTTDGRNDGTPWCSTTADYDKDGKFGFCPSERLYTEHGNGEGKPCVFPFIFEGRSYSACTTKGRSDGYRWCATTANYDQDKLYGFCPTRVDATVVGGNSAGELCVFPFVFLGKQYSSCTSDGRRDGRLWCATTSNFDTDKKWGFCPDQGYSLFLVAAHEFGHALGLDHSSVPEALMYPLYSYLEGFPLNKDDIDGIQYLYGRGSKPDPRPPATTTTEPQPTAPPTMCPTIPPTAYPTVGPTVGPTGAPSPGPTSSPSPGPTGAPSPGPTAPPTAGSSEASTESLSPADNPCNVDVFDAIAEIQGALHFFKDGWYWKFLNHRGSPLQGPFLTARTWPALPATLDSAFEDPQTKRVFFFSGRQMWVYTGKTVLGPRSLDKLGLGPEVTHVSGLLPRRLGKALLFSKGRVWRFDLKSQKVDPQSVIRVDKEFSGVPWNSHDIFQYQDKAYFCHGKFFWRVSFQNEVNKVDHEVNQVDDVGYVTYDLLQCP
molecule,measurement,setting,value
"5-FAM-GGPLGVRGKK(CPQ2)-PEG2-C (5FAM-GGPLGVRGKK(CPQ2)[PEG2′]C) [MMP9 peptide substrate, MMP9 peptide substrate (PLGVRGK) flanked by a FRET pair, presented on nanoparticle surface at varying PEG tether lengths]",cleavage by mouse MMP9,[1],readily able to cleave
same,cleavage velocity (V) by thrombin,[2]; longest presentation distance,0.01 nM/s
same,cleavage velocity (V) by thrombin,[2]; shortest presentation distance,0.29 nM/s
same,cleavage velocity (V) by MMP9,[3]; longest presentation distance (tether length),0.96 nM/s
same,cleavage velocity (V) by MMP9,[3]; shortest presentation distance (tether length),0.24 nM/s
CNC(=O)[C@@H](NC(=O)[C@H](CC(C)C)[C@H](O)C(=O)NO)C(C)(C)C [marimistat],inhibition of cleavage of MMP9 substrate by OVCAR-8 conditioned media,[4],can be inhibited
same,inhibition of cleavage of MMP9 substrate by OVCAR-8 conditioned media,[4]; listed as Marimistat,can inhibit a significant portion of the cleavage
5-FAM-GGfPRSGGGK(CPQ2)-PEG2-C [thrombin-selective substrate],optimal presentation length for thrombin cleavage,[2]; varying linker lengths on nanoparticle surface,optimally presented at an intermediate length
"HE4: human epididymis protein, clinical blood biomarker used as comparator diagnostic, measured by ELISA (protein, UniProt Q14508 31-124, looked up) WAP four-disulfide core …: EKTGVCPELQADQNCTQECVSDSECADNLKCCSAGCATFCSLPNDKEGSCPQVNINFPQLGLCRDQCQVDSQCPGQMKCCRNGCGKVSCVTPNF",limit of detection (tumor volume),[5]; 3 weeks,88 mm^3
same,ROC-AUC,[5]; three weeks,0.93
same,ROC-AUC,[5]; two weeks,0.51
